A short description of the series: soluble on expression in E. coli; label from the status in PepcDB or PDB records.
Turning to “MAHHHHHHMSHEGAPQGEYVAILDAGSQYGKVIDRKVRELHVETSILSLNTPAEKLRNDANLKGIIISGGPSSVNDATSLAYDRAIFSMGKPVLGICYGMQMLTELYGGEVCRGKVREDGQDNIQVDTSSPIFAGLESTEAVLLTHGDSITAVGSELKVIARSSAGIISAVQHRSRPLFGVQFHPEVELTVSGKTIFKNFLQLCRCNFSFTMEDREAVALRLIRERTSGGQKVLCLASGGVDSTVCAVLLLKALGPERVVCIHIDHGFMRLNESVQAVEALNAAGVRVHLVKAQEDFAQASTEMTAKGSRAAYTTNKLREVTDPEEKRNIIGNTFMTVCDRVIKELQLDVENLLLAQGTLRPDLIESGSKYASVNAAAIKTHHNDTAVVRLLRDAGRIIEPLCDYHKDEVRELGARLGIPCRLLERQPFPGPGLAIRTLCTDGTPFRDGNFEDTQTTVKRVCMGADASSAEVAALAQKATLSACILPVRTVGVQGDGRTYAYAAALSMQTFPTAEQWATLIQLAKEIPKTAHAVNRVVFMFGPPQSESPSTVTPTYLTTDVLEKLRVADDKVNSILMKHQLVRSLSQVPIILIPIGFDKAGGYSVVVRTFLTNDFMTGIPATPGTAFMPLAVLEEIFNEVQKLEFVGRVMYDLTAKPPGTTEWE”, the “soluble on expression in E. coli” value is given as “not soluble”. For “MAHHHHHHMSITAGTLPPVKGTSVKKSPRKGRPADSMGNGTGAAADPHCYHKCRCYGHDDTLPNYKLLTIPRTNNYYAATGGCPCVPRVAAHPGSWRLKEGQLRSSTYRCGTGCIKKSAALTLGCCHHSGDQYGWRRGPHTVLDKNTAATGKCDTFGNLAFKSTSRAYCAVGGDDLSDVSSASPQKLEDLEALILEEHQQRMRVEEDVDELAGIQRNGTADWYKKIHHDAERRRLLAQISEVELQDLLRDVKNIVDRPLNQTNMDLLRRILHRQEHLQRQREYYAAQELE” the value was “not soluble”; for “MAHHHHHHMSITSRFIGGVKHLLKGGSMKYLAAGEPYCPFGEAFGLTILPEYILEDDASNLRKGYVDVYTRASDRIILNDGRFQLPPLPPASFMPLLERLEQDNVVPKSWLNNQTANLYEPGDFIRAHIDNLFVYDDIFAICSLGSNCLLRFVHVQNGEELDVMVPDRSVYIMSGPARYVYFHMVLPVEAQRFSLVFRRSIMESDGGFRPVKTPFKEIMPYRATQILNALYSKQVGGVRVSVDDDFLESADIGAFDTSRWVKRLHPLRDWSLLRQLDEDEARVEALREKRFIDVDFSWRYRELRSYYKAMEESLVSPHVAHVTPQA”, “soluble”; for “MAHHHHHHMSKADENGNELMEIEEVAVSDGGAARFAAVDVKSGEERFNVIWQDSGKLMRFDEGENQWKERGQGTAKVLQRKDNTSKYMFVFRREGVGKLAAQHYLVKGMKVTKHKQGEKILVWSAFKDFTDDEEGFPENFVMRLSSKEAADKALAEMMGAIEKSSV”, “soluble”. Regarding “MAHHHHHHMSLADEVPREWASSIRPFLQRADEFQERVPVVAYFLRTHAVYLAMKMWRKEDGPGKAFIVKLLDTLESEKKRLEQELADVDGRVLLTQYALRIFSRADDEERSDGVVANMNLVRLFFTASLLFEATAQFTDDGTLDPIATEKRDYARYIAVEMKKAMDKGVPYVSPNRTGGMVESNKEHEGESTGGGGFSTNFVQSQQPGYGQWSAQYVTPQPPPPSHEPPETPMWSGPESTNTSSTQQQQQSTPLFQTTAQPNNSNDNSNIAAAVSGVAAPKGPTMDAIIEAQNYAKQAVSALQFYDHEVACKMLRSALDLLAQR”, the “soluble on expression in E. coli” value is “soluble”. Regarding “MAHHHHHHMSLYQRKTILAPMVRVGNVGFRVFCAAQGADVVFTEEIVAAKLARCHREVRVHNDAAGPMIEFVAYELFKNQYKRSVVFTTPARDMANQSGEGAPVVLQLGVSDAAVGVAAALLCCEDVDGIDVNMGCPKKFSVDNGMGAALMRDTSKAASILFALDDALNAPDKLAARGRRVPLSFKIRLLETAEATADMLISIMEKVGANRVHAITLHARTVNQVAEDSPHYDRAAEAVRRLRSHPLFKEMCFVLNGSVRSRDDGAVKMAQFGFDAIMIARHAMWDMSVFSRHVSSAGGRSSLTSEDAEAPLASTSWMDLYRSLLRTHAKYCTPFTYVKYHLTRSIPCIPALRHLMTAVQQEATCYEDLAKIFSLPLEEQESMRGVAAVEMVACVPNREVTLGVVSSNAIKHNDAARSGRVRSEKSAATPAAKKPRGE”, the “soluble on expression in E. coli” value is given as “soluble”.

These data come from the DeepSol protein solubility set.
